Blank lines part the entries; values can stand above or below the molecule they belong to. Where no end group is shown, it is not given here. [ ]: non-standard residue; d: D form. pS = N[C@@H](COP(=O)(O)O)C(=O)O
B3: VPS26A/VPS26B heterodimer (complex, Arabidopsis thaliana)
chain 1: MNYLLGAFKPACNISITFTDGKNRKQVPTKKDNGQIVMNPLFQSQETIAGKINIEPYQGKKVEHNGVKVELLGQIEMYFDRGNFYDFTSLVREIDVPGEIYERKTYPFEFSSVEMPYETYNGVNVRLRYVLKVTVTRGYAGSIVEYQDFVVRNYVPLPPINNSIKMEVGIEDCLHIEFEYNKSKYHLKDVILGKIYFLLVRIKIKNMDLEIRRRESTGAGANTHVETETLAKFELMDGAPVRGESIPVRVFLTPYDLTPTHKNINNKFSVKYYLNLVLVDEEDRRYFKQQEITLYRLKEETS
chain 2: MNYLLGAFKPACNISITFSDGKNRKQVPMKKENGQTALVPLFHSQDTISGKVCIEPYQGKKVEHNGVKVELLGQIEMYFDRGNFYDFTSLVRELDVPGEIYERKTYPFEFPTVEMPYETYNGVNVRLRYVLKVTVTRGYAGSILEYQELVVRNYAPLPDINNSIKMEVGIEDCLHIEFEYNKSKYHLKDVILGKIYFLLVRIKMKNMDLEIRRRESTGAGANTHVETETLAKFELMDGTPVRGESIPVRLFLAPYDLTPTHRNINNKFSVKYYLNLVLVDEEDRRYFKQQEITLYRLKEDASS
notes: AtVPS26A, Arabidopsis thaliana, UniProt Q9FJD0, as m1; AtVPS26B, Arabidopsis thaliana, UniProt Q9T091, as m2; In the number-and-brightness rows the id stands for the endogenous heterodimer of the plant; also called VPS26A/B; VPS26A/B dimer; source: E. coli BL21 (DE3), each subunit purified, mixed; copies: 1 + 1
B4: Vacuolar Protein Sorting-Associated 26A (AtVPS26A) (natural protein, Arabidopsis thaliana, UniProt Q9FJD0 1-302, looked up)
chain: MNYLLGAFKPACNISITFTDGKNRKQVPTKKDNGQIVMNPLFQSQETIAGKINIEPYQGKKVEHNGVKVELLGQIEMYFDRGNFYDFTSLVREIDVPGEIYERKTYPFEFSSVEMPYETYNGVNVRLRYVLKVTVTRGYAGSIVEYQDFVVRNYVPLPPINNSIKMEVGIEDCLHIEFEYNKSKYHLKDVILGKIYFLLVRIKIKNMDLEIRRRESTGAGANTHVETETLAKFELMDGAPVRGESIPVRVFLTPYDLTPTHKNINNKFSVKYYLNLVLVDEEDRRYFKQQEITLYRLKEETS
notes: AtVPS26A, Arabidopsis thaliana, UniProt Q9FJD0, gene At5g53530; Fluorescently labelled (Monolith RED-NHS or RED-MALEIMIDE kit) when it was the labelled partner in MST; the His-SUMO tag may have been kept in mass photometry (surmise); also called AtVSP26A; source: E. coli BL21 (DE3), purified (nickel resin, ULP1 cleavage, second nickel, SEC)

Tests used:
[1] = target: AtGPA1 (Arabidopsis thaliana) (UniProt P18064); details: cited from earlier work
AtGPA1 (Arabidopsis thaliana), sequence (P18064 2-383): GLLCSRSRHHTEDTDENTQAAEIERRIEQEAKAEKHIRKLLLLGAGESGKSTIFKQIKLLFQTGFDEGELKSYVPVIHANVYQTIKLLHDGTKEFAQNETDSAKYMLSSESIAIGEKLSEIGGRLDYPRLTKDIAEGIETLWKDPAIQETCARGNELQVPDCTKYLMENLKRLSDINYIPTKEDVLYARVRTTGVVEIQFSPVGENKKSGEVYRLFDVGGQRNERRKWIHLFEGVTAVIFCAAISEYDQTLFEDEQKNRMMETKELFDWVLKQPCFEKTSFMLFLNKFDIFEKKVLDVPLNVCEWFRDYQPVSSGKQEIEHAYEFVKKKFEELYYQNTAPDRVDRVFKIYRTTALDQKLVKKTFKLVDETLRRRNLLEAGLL

[2] = target: B3; assay: MST; 20 nM fluorescence-labelled protein (RED-NHS or RED-MALEIMIDE), ligand dilution series, 25 °C, PBS pH 7.4, 0.05% Tween-20; apparent Kd; averages of 2 to 4 experiments; details: both partners purified
[3] = target: T1, VPS26A/VPS26B heterodimer (Arabidopsis thaliana, UniProt Q9FJD0 1-302; Q9T091 1-303); assay: ITC; phosphorylated S428, S431, S435
T1 chain 1: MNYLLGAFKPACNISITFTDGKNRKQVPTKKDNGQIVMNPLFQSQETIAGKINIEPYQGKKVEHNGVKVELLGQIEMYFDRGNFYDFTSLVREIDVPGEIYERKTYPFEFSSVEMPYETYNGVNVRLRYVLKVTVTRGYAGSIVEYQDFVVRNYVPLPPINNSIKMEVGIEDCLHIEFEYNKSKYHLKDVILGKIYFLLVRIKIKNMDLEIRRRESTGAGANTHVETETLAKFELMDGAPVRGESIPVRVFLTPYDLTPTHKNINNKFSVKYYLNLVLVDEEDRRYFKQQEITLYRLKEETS
T1 chain 2: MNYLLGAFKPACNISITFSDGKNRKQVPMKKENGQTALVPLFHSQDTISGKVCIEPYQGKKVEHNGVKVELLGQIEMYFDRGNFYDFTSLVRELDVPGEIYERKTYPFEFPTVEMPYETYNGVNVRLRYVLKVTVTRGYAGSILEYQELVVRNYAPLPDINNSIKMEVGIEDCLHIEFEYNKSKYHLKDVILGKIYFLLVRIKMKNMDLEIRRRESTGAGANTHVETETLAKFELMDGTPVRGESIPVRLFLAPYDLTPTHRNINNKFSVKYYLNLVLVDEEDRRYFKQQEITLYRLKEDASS

[4] = target: T2, Vacuolar Protein Sorting-Associated 26A (AtVPS26A) (Arabidopsis thaliana, UniProt Q9FJD0 1-302); assay: ITC; phosphorylated S428, S431, S435
T2 chain: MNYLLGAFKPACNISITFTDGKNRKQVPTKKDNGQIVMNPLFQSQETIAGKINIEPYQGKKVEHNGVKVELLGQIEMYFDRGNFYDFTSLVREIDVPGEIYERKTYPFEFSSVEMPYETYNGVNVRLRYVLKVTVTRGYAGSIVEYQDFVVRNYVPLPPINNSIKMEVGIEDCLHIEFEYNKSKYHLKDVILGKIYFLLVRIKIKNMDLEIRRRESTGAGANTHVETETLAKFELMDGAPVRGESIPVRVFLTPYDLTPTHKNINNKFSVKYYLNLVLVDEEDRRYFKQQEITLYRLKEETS

[5] = target: T3, Vacuolar Protein Sorting-Associated 26B (AtVPS26B) (Arabidopsis thaliana, UniProt Q9T091 1-303); assay: ITC; phosphorylated S428, S431, S435
T3 chain: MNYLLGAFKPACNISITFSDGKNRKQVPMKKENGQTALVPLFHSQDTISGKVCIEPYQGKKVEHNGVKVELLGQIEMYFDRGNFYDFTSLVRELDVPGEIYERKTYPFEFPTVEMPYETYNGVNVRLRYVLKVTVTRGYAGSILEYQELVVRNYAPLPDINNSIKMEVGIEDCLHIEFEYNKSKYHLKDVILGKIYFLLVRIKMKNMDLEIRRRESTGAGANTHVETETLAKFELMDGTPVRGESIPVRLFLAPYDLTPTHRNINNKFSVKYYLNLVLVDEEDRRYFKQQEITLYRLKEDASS

[6] = target: B4; assay: MST; 20 nM fluorescence-labelled protein (RED-NHS or RED-MALEIMIDE), ligand dilution series, 25 °C, PBS pH 7.4, 0.05% Tween-20; apparent Kd; averages of 2 to 4 experiments; details: both partners purified
[7] = target: T4, Full-length AtRGS1 with a phosphorylated C-tail peptide ligated by sortase A (Arabidopsis thaliana, phosphoserine at 428, 431 and 435); assay: mass photometry; purified AtRGS1 in detergent micelle (mixture of about 50% tail-ligated and truncated protein) with VPS26A/B heterodimer added; details: both partners purified
T4 chain: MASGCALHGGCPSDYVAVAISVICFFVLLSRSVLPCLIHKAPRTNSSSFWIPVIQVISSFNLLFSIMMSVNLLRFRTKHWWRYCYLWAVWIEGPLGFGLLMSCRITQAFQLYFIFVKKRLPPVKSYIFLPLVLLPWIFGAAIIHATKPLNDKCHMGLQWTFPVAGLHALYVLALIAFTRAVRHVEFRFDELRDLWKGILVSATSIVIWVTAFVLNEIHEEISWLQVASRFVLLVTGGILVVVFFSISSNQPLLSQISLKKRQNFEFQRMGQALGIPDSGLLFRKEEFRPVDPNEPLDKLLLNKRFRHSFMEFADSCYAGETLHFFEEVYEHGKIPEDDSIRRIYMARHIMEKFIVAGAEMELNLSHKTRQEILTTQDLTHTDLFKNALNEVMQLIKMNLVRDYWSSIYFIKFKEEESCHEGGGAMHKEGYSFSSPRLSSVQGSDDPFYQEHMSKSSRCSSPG

[8] = target: T5, Vacuolar Protein Sorting-Associated 26B (AtVPS26B) (Arabidopsis thaliana, UniProt Q9T091 1-303); assay: MST; 20 nM fluorescence-labelled protein (RED-NHS or RED-MALEIMIDE), ligand dilution series, 25 °C, PBS pH 7.4, 0.05% Tween-20; apparent Kd; averages of 2 to 4 experiments; details: both partners purified
T5 construct: AtVPS26B, Arabidopsis thaliana, UniProt Q9T091, gene At4g27690; the His-SUMO tag may have been kept in mass photometry (surmise); also called VSP26B; source: E. coli BL21 (DE3), purified (nickel resin, ULP1 cleavage, second nickel, SEC)

[9] = target: T1, VPS26A/VPS26B heterodimer; assay: ITC
[10] = target: T2, Vacuolar Protein Sorting-Associated 26A …; assay: ITC
[11] = target: Vacuolar Protein Sorting-Associated 26B (AtVPS26B) (Arabidopsis thaliana) (UniProt Q9T091); assay: MST; 20 nM fluorescence-labelled protein (RED-NHS or RED-…), ligand dilution series, 25 °C, PBS pH 7.4, 0.05% Tween-20; apparent Kd; averages of 2 to 4 experiments
[12] = target: Vacuolar Protein Sorting-Associated 26A (AtVPS26A) (Arabidopsis thaliana) (UniProt Q9FJD0); assay: as above
[13] = target: T3, Vacuolar Protein Sorting-Associated 26B …; assay: ITC

binding result [2]: binds
Kd [9]: 123 nM
B5: AtRGS1 truncated C tail peptide (A421-E447), unphosphorylated (peptide)
peptide: GGGAMHKEGYSFSSPRLSSVQGSDDPFYQE
notes: N-terminal GGG added to the peptide; AtRGS1 C-terminal tail, Arabidopsis thaliana, UniProt Q8H1F2, residues A421-E447; also called ΔC tail; RGS1 delta C-tail; source: synthetic peptide (Tufts University Peptide Core Facility)

Kd [6]: 217 nM
Kd [8]: 253 nM
Kd [9]: 63 nM
Kd [10]: 317 nM
B6: AtRGS1 C tail peptide (A421-G459), unphosphorylated (peptide)
peptide: GGGAMHKEGYSFSSPRLSSVQGSDDPFYQEHMSKSSRCSSPG
notes: N-terminal GGG added to the peptide; AtRGS1 C-terminal tail, Arabidopsis thaliana, UniProt Q8H1F2, residues A421-G459; Purity 99%; also called unphosphorylated C-tail; source: synthetic peptide (UNC Peptide Core Facility)

Kd [11]: 35 nM
Kd [12]: 34 nM
Kd [9]: 22 nM
Kd [10]: 38 nM
Kd [13]: 40 nM
B7: AtRGS1 RGS domain plus C-terminal tail (residues 284-459) (domain or fragment)
chain: KEEFRPVDPNEPLDKLLLNKRFRHSFMEFADSCYAGETLHFFEEVYEHGKIPEDDSIRRIYMARHIMEKFIVAGAEMELNLSHKTRQEILTTQDLTHTDLFKNALNEVMQLIKMNLVRDYWSSIYFIKFKEEESCHEAMHKEGYSFSSPRLSSVQGSDDPFYQEHMSKSSRCSSPG

Second part, the molecule before the results:

Molecule: AtRGS1 (from UniProt Q8H1F2)
Kd [1]: 125 nM

B1: AtRGS1 pSer C tail peptide (A421-G459, phosphorylated at S428, S431, S435) (peptide)
peptide: GGGAMHKEGY[pS]FS[pS]PRL[pS]SVQGSDDPFYQEHMSKSSRCSSPG
notes: N-terminal GGG added to the peptide; AtRGS1 C-terminal tail, Arabidopsis thaliana, UniProt Q8H1F2, residues A421-G459; Purity 87%; also called RGS1 pC-tail; ptail; source: synthetic peptide (UNC Peptide Core Facility)
fold higher affinity than the unphosphorylated C-tail [2]: ~5 fold
Kd [3]: 12 nM
Kd [4]: 71 nM
Kd [5]: 17 nM

B2: VPS26B Y85A/E93A mutant (natural protein, Arabidopsis thaliana, UniProt Q9T091 1-303, looked up)
chain: MNYLLGAFKPACNISITFSDGKNRKQVPMKKENGQTALVPLFHSQDTISGKVCIEPYQGKKVEHNGVKVELLGQIEMYFDRGNFADFTSLVRALDVPGEIYERKTYPFEFPTVEMPYETYNGVNVRLRYVLKVTVTRGYAGSILEYQELVVRNYAPLPDINNSIKMEVGIEDCLHIEFEYNKSKYHLKDVILGKIYFLLVRIKMKNMDLEIRRRESTGAGANTHVETETLAKFELMDGTPVRGESIPVRLFLAPYDLTPTHRNINNKFSVKYYLNLVLVDEEDRRYFKQQEITLYRLKEDASS
notes: AtVPS26B, Arabidopsis thaliana, UniProt Q9T091, with Y85A and E93A
fold lower heterodimerization than VPS26B wildtype [6]: ~10 fold

Molecule: B3
stoichiometry N [7]: 1

Molecule: B4
Kd [8]: ~18 nM
